{"source": "patent US7449311B2", "about": "“Method of producing macedocin by culturing Streptococcus macedonicus” (Vrije Universiteit Brussel, priority 2001, dated 2008)", "origin": "cited, not measured here", "note": "Read-outs that look alike come from different tables or passages of the source.", "data": [{"substance": "SA-FF22: lantibiotic isolated from pathogenic Streptococcus pyogenes FF22 (SEQ ID NO 2) (GKNGVFKTISHECHLNTWAFLATCCS; Streptococcus pyogenes)", "values": [{"measurement": "loss of activity", "setting": "at a pH of 7 (Tagg et al., 1978)", "value": 50, "unit": "%"}, {"measurement": "loss of activity", "setting": "stored for 4 weeks at room temperature (Tagg et al., 1973)", "value": 75, "unit": "%"}]}]}
